Assays:
[1] = substrate: OCC(O)COc1ccccc1; test: purified protein, by the assay type; conditions: 30.0 °C
purified protein [2] = substrate: OCC(O)CO; test: purified protein; assay type: biochemical, Geobacillus stearothermophilus; conditions: 1 mM NAD+, 100 mM sodium phosphate pH 7, 30 °C, free enzyme
purified protein [3] = substrate: CCOCC(O)CO; test: purified protein; assay type: biochemical, Geobacillus stearothermophilus; conditions: 1 mM NAD+, 100 mM sodium phosphate pH 7, 30 °C, free enzyme
purified protein [4] = substrate: OCC(O)COc1ccccc1; test: purified protein; assay type: biochemical, Geobacillus stearothermophilus; conditions: 1 mM NAD+, 100 mM sodium phosphate pH 7, 30 °C, free enzyme
purified protein [5] = substrate: OCC(O)COCC(F)(F)F; test: purified protein; assay type: biochemical, Geobacillus stearothermophilus; conditions: 1 mM NAD+, 100 mM sodium phosphate pH 7, 30 °C, free enzyme

B1: BsGlyDH (GlyDH from Bacillus stearothermophilus) (Geobacillus stearothermophilus) (protein)
chain: MAAERVFISPAKYVQGKNVITKIANYLEGIGNKTVVIADEIVWKIAGHTIVNELKKGNIAAEEVVFSGEASRNEVERIANIARKAEAAIVIGVGGGKTLDTAKAVADELDAYIVIVPTAASTDAPTSALSVIYSDDGVFESYRFYKKNPDLVLVDTKIIANAPPRLLASGIADALATWVEARSVIKSGGKTMAGGIPTIAAEAIAEKCEQTLFKYGKLAYESVKAKVVTPALEAVVEANTLLSGLGFESGGLAAAHAIHNGFTALEGEIHHLTHGEKVAFGTLVQLALEEHSQQEIERYIELYLSLDLPVTLEDIKLKDASREDILKVAKAATAEGETIHNAFNVTADDVADAIFAADQYAKAYKEKHRK
Question: Which results are given for B1?
Answer: Km [1]: 6.6 mM; Km (purified protein [2]): 50 ± 3 mM; Vmax (purified protein [2]): 1.4 µmol/min/mg; kcat (purified protein [2]): 7.4 ± 0.2 s⁻¹; kcat/Km (purified protein [2]): 148 M⁻¹ s⁻¹; Km (purified protein [3]): 13.4 ± 0.4 mM; Vmax (purified protein [3]): 0.036 µmol/min/mg; kcat (purified protein [3]): 0.19 ± 0.003 s⁻¹; kcat/Km (purified protein [3]): 14 M⁻¹ s⁻¹; Km (purified protein [4]): 7 ± 2 mM; Vmax (purified protein [4]): 0.14 µmol/min/mg; kcat (purified protein [4]): 0.7 ± 0.1 s⁻¹; kcat/Km (purified protein [4]): 112 M⁻¹ s⁻¹; Km (purified protein [5]): 78 ± 8 mM; Vmax (purified protein [5]): 0.06 µmol/min/mg; kcat (purified protein [5]): 0.32 ± 0.01 s⁻¹; kcat/Km (purified protein [5]): 4 M⁻¹ s⁻¹
